This passage reports NTHI biofilm formation results from patent US20210139610A1, “COMPOSITIONS AND METHODS FOR MEDIATING EPS” (priority 2018, published 2021).

The subject of this experiment is Non-typeable Haemophilus influenzae biofilms. The experiment is described as follows: NTHI in vitro biofilm formation, additive present from seeding (LIVE/DEAD, CLSM, COMSTAT). The note with it: RNase A present from seeding, 16 h. In kind it is cell-based.

B1: RNase A: ribonuclease (protein, UniProt P61823 27-150, looked up)
Ribonuclease pancreatic: KETAAAKFERQHMDSSTSAASSSNYCNQMMKSRNLTKDRCKPVNTFVHESLADVQAVCSQKNVACKNGQTNCYQSYSTMSITDCRETGSSKYPNCAYKTTQANKHIIVACEGNPYVPVHFDASV
As to B1, the NTHI biofilm formation result was “stimulated biofilm formation in a dose-dependent manner”.
